Measurements reported in patent publication US20240116985A1 (published 2024).
Starred links: 1 amine or outer side, 2 acyl side, 3 side chain; linkers in the order of their positions; H or OH if unused. Positions of bridges follow the written chain, without caps; N, C: chain ends. Non-standard residues stand in square brackets, D forms with d. Primed or numbered codes have the meaning given here. PyrS2(3) = (S)-3-amino-1-((pent-4-en-1-yloxy)carbonyl)pyrrolidine-3-carboxylic acid, stapling residue, C=CCCCOC(=O)N1CC[C@@](N[*:1])(C(=O)[*:2])C1; PyrS2″ = (S)-3-amino-1-((pent-4-en-1-yloxy)carbonyl)pyrrolidine-3-carboxylic acid (stapling residue), C=CCCCOC(=O)N1CC[C@@](N[*:1])(C(=O)[*:2])C1; B5(16) = 2-amino-2-(pent-4-en-1-yl)hept-6-enoic acid = 2,2-bis(4-pentenyl)glycine (stitching residue), C=CCCCC(CCCC=C)(N[*:1])C(=O)[*:2]; B5(4) = 2,2-bis(4-pentenyl)glycine = 2-amino-2-(pent-4-en-1-yl)hept-6-enoic acid (stitching residue), C=CCCCC(CCCC=C)(N[*:1])C(=O)[*:2]; B5(20) = 2-amino-2-(pent-4-en-1-yl)hept-6-enoic acid = bis(4-pentenyl)glycine, stitching residue, C=CCCCC(CCCC=C)(N[*:1])C(=O)[*:2]; B5(6) = 2-amino-2-(pent-4-en-1-yl)hept-6-enoic acid (bis(4-pentenyl)glycine), stitching residue, C=CCCCC(CCCC=C)(N[*:1])C(=O)[*:2]; TfeGA = (S)-2-amino-3-((carboxymethyl)(2,2,2-trifluoroethyl)amino)propanoic acid, O=C([C@H](CN(CC(=O)[*:3])CC(F)(F)F)N[*:1])[*:2]; PyrS2 = (S)-3-amino-1-((pent-4-en-1-yloxy)carbonyl)pyrrolidine-3-carboxylic acid, C=CCCCOC(=O)N1CC[C@@](N[*:1])(C(=O)[*:2])C1; B5(3) = 2,2-bis(4-pentenyl)glycine (stitching residue), C=CCCCC(CCCC=C)(N[*:1])C(=O)[*:2]; B5″ = 2,2-bis(4-pentenyl)glycine, stitching residue, C=CCCCC(CCCC=C)(N[*:1])C(=O)[*:2]; Phe(2-CONH2) = NC(=O)c1ccccc1C[C@H](N)C(=O)O; Phe(2-Cl) = N[C@@H](Cc1ccccc1Cl)C(=O)O; Phe(2-OMe) = COc1ccccc1C[C@H](N)C(=O)O; Bta = N[C@@H](Cc1csc2ccccc12)C(=O)O; αAllylPro = C=CC[C@@]1(C(=O)O)CCCN1; tBuAla = CC(C)(C)C[C@H](N)C(=O)O; 3Thi = N[C@@H](Cc1ccsc1)C(=O)O; Cha = N[C@@H](CC1CCCCC1)C(=O)O; S8 = C=CCCCCCC[C@](C)(N)C(=O)O; Thr(ol) = C[C@@H](O)[C@H](N)CO; hSer = N[C@@H](CCO)C(=O)O

T1: beta-catenin in TCF/LEF luciferase reporter cells (Homo sapiens (Human), UniProt P35222 1-781)
T1 sequence: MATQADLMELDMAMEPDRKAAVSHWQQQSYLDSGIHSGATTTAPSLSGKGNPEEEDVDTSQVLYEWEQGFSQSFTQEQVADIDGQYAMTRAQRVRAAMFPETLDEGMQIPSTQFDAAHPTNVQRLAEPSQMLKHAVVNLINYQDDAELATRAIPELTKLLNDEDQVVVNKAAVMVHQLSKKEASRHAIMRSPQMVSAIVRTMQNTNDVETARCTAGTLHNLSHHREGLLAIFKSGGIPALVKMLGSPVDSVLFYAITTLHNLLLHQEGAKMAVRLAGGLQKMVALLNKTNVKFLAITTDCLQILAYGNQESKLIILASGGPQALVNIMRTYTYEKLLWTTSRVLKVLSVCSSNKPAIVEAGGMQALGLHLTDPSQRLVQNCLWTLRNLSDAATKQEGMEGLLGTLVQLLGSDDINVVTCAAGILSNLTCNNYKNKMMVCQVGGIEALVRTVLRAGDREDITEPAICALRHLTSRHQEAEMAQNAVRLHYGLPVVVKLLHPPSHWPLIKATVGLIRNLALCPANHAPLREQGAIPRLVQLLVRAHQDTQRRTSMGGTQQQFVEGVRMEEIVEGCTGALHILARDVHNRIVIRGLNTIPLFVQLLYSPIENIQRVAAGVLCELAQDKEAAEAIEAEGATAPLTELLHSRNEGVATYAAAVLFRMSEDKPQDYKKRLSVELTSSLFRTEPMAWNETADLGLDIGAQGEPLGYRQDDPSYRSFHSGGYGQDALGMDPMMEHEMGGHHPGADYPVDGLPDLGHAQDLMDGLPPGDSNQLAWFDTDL

T2: full-length beta-Catenin (Uniprot ID P35222) (Homo sapiens (Human), UniProt P35222 2-781)
T2 construct: The assay protocols say only 'full-length'; No tag is stated, although the AlphaScreen kit is a Histidine (Nickel Chelate) kit; also called B-Catenin; bCat
T2 sequence: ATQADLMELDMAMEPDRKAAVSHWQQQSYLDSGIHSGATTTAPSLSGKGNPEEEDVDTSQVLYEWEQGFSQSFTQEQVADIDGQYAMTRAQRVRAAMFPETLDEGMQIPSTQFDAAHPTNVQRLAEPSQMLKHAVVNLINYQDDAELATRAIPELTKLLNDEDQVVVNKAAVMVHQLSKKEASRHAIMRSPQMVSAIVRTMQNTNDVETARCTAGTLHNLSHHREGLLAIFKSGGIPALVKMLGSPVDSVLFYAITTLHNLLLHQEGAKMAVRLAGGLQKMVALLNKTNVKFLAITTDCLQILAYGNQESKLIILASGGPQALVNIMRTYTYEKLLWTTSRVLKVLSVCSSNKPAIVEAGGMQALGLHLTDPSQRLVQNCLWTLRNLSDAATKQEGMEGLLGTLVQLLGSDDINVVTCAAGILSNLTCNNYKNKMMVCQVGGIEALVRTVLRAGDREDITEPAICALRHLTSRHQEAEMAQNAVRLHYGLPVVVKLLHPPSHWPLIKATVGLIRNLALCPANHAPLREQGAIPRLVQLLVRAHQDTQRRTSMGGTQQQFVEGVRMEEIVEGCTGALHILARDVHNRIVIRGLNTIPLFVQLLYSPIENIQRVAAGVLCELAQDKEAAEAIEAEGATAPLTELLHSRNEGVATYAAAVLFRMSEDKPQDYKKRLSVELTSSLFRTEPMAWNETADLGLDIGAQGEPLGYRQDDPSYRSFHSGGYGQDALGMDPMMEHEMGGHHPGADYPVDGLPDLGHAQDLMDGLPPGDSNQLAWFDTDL

T3: full-length beta-Catenin (Uniprot ID P35222) (Homo sapiens (Human), UniProt P35222 1-781)
T3 construct: also called bCat; B-Catenin
T3 sequence: T1 sequence

T4: B-cat-Halo (UniProt P35222 1-781)
T4 sequence (looked up): T1 sequence

T5: B-cat-Halo (NanoBRET construct expressed in HEK293 cells) (UniProt P35222 1-781)
T5 sequence (looked up): T1 sequence

B1: I-350 (peptide)
peptide: XDAXADAAFVXFWQ
modifications: not fully specified; N-terminal Ac; C-terminal NH2; PL3 at 1, B5 at 4, S8 at 11 (stapled 1-4 and 4-11)
notes: Stapled peptide composition; Earlier-eluting isomer composition; also called Ac-PL3-Asp-Ala-B5-Ala-Asp-Ala-Ala-Phe-Val-S8-Phe-Trp-Gln-NH2
B2: I-351 (peptide)
peptide: XDAXADAAFVXFWQ
modifications: not fully specified; N-terminal Ac; C-terminal NH2; PL3 at 1, B5 at 4, S8 at 11 (stapled 1-4 and 4-11)
notes: Stapled peptide composition; Later-eluting isomer composition; also called Ac-PL3-Asp-Ala-B5-Ala-Asp-Ala-Ala-Phe-Val-S8-Phe-Trp-Gln-NH2
B3: I-352 (peptide)
peptide: Ac-[αAllylPro]DA[B5(16)]DAAAFV[S8]FWQ-NH2
modifications: staple 1-4, 4-11
notes: Stapled peptide composition; also called Ac-PL3-Asp-Ala-B5-Asp-Ala-Ala-Ala-Phe-Val-S8-Phe-Trp-Gln-NH2

What follows are binders tested against T1, beta-catenin in TCF/LEF luciferase … (assay: cell-based or functional assay).
In the case of Ac-[αAllylPro]D[tBuAla][B5″]D[TfeGA]AAFN[PyrS2(3)][3Thi][Bta]Q-NH2 (staple 1-4, 4-11) [I-762], the “TCF Reporter Assay Abs IC50 (uM), peptide + ST-Protein” value is reported as 0.3 µM and the “TCF Reporter Assay Abs IC50 (uM), peptide only” value is reported as 7 µM.
In the case of Ac-[αAllylPro]D[tBuAla][B5(3)]D[TfeGA]AAF[hSer][PyrS2″][Phe(2-Cl)][Bta][hSer]-NH2 (staple 1-4, 4-11) [I-993], the “TCF Reporter Assay Abs IC50 (uM), peptide + ST-Protein” value is reported as 0.2 µM and the “TCF Reporter Assay Abs IC50 (uM), peptide only” value is reported as 5 µM.
In the case of Ac-[αAllylPro]D[tBuAla][B5(3)]D[TfeGA]AAFL[PyrS2][3Thi][Bta]Q-NH2 (staple 1-4, 4-11) [I-849], the “TCF Reporter Assay Abs IC50 (uM), peptide + ST-Protein” value is reported as 0.2 µM and the “TCF Reporter Assay Abs IC50 (uM), peptide only” value is reported as 5 µM.
For Ac-[αAllylPro]D[tBuAla][B5(3)]D[TfeGA]AAFT[PyrS2″][Phe(2-Cl)][Bta]Q-NH2 (staple 1-4, 4-11) [I-922], the “TCF Reporter Assay Abs IC50 (uM), peptide + ST-Protein” value was 0.2 µM and the “TCF Reporter Assay Abs IC50 (uM), peptide only” value was 5 µM.

Each binder was assayed against T2, full-length beta-Catenin (Uniprot ID …) (assay: AlphaScreen competition; peptide titrated against full-length beta-catenin + biotin-TCF4(10-53)).
Method: Equal volume of the titrated peptide was added to the plate and incubated for 15 minutes at 20° C. Then 4 uL of donor and 4 uL acceptor beads at 10 ug/mL were added to the plate, for a 16 uL reaction pool and protected from light for 60 minutes at 20° C. prior to read. Reads were performed on a CLARIOstar plate reader (BMG Labtech) in duplicate, and data were fitted to a 1:1 binding model with hill slope using an in-house script. All provided concentrations are final concentrations.
In the case of B1, the EC50 is reported as 10 µM.
B2 showed an EC50 of 10 µM.
B3 was tested, and the EC50 was 0.377 µM.

Each binder was assayed against T3, full-length beta-Catenin (Uniprot ID …) (assay: FP competition: full-length beta-catenin 10 nM + 5FAM-TCF4(10-53) 10 nM).
Method: The plate was incubated protected from light for 60 minutes at 20° C. prior to read. Reads were performed on a CLARIOstar plate reader (BMG Labtech) in duplicate, and data were fitted to a 1:1 binding model with hill slope using an in-house script. All provided concentrations are final concentrations.
Ac-[αAllylPro]DL[B5(6)]DEAAFQ[S8]F[Bta]H-NH2 (staple 1-4, 4-11, Stapled peptide composition) [I-506] showed an IC50 of 0.025 µM.
Binder Ac-[αAllylPro]DI[B5(20)]DEAAFN[S8][Phe(2-OMe)][Bta]H-NH2 (staple 1-4, 4-11, Stapled peptide composition) [I-512] has an IC50 of 0.02 µM.
In the case of Ac-[αAllylPro]DI[B5(20)]DEAAFN[S8][Phe(2-CONH2)][Bta]H-NH2 (staple 1-4, 4-11, Stapled peptide composition) [I-514], the IC50 is reported as 0.03 µM.

Each binder was assayed against T4, B-cat-Halo (assay: cell-based or functional assay).
For Ac-[αAllylPro]D[tBuAla][B5(4)]DDAAFF[PyrS2][3Thi][Bta][Thr(ol)] (staple 1-4, 4-11) [I-1303], the “NanoBRET Abs IC50 (uM); B-cat-Halo / TCF4-Luc in HEK293 cells” value was 9.1 µM.
In the case of Ac-[αAllylPro]N[tBuAla][B5(4)]DDAAFL[PyrS2][3Thi][Bta][Thr(ol)] (staple 1-4, 4-11) [I-1304], the “NanoBRET Abs IC50 (uM); B-cat-Halo / TCF4-Luc in HEK293 cells” value is reported as 33.6 µM.
In the case of Ac-[αAllylPro]D[Cha][B5(4)]DDAAFL[PyrS2″][Phe(2-Cl)][Bta][Thr(ol)] (staple 1-4, 4-11) [I-1307], the “NanoBRET Abs IC50 (uM); B-cat-Halo / TCF4-Luc in HEK293 cells” value is reported as 38.8 µM.

What follows are binders tested against T5, B-cat-Halo (NanoBRET construct …) (assay: cell-based or functional assay).
With Ac-[αAllylPro]DL[B5(6)]DEAAFQ[S8]F[Bta]H-NH2 (staple 1-4, 4-11, Stapled peptide composition) [I-506] the “NanoBRET Abs IC50” value was 8.9 µM.
In the case of Ac-[αAllylPro]DI[B5(20)]DEAAFN[S8][Phe(2-OMe)][Bta]H-NH2 (staple 1-4, 4-11, Stapled peptide composition) [I-512], the “NanoBRET Abs IC50” value is reported as 12.3 µM.
With Ac-[αAllylPro]DI[B5(20)]DEAAFN[S8][Phe(2-CONH2)][Bta]H-NH2 (staple 1-4, 4-11, Stapled peptide composition) [I-514] the “NanoBRET Abs IC50” value was over 20 µM.
